This passage reports Kd results from patent US20120253017A1.

Assay [1] addresses mouse c-kit (recombinant, on BIAcore chip) (mouse) (UniProt P05532). Put plainly: BIAcore 2000, 1 uM dAb.
Assay [2] has the same target. The assay is described as follows: BIAcore. In general terms: SPR reads the build-up and loss of mass on a sensor chip optically.
Assay [3] shares this target. Put plainly: BIAcore, c-kit on SA chip.
For assay [4] the target is unchanged. The assay is described as follows: BIAcore, dAb at 1000 and 500 nM.
The target is the same in assay [5]. The assay is described as follows: BIAcore, approximate kinetic constants.
Assay [6] deals with human c-kit (recombinant, on BIAcore chip or beads) (human) (UniProt P10721). Put plainly: BIAcore.
In assay [7] the target is T1, Mouse cKIT ECD-Fc (mouse; human) (UniProt P05532).
T1 sequence (looked up): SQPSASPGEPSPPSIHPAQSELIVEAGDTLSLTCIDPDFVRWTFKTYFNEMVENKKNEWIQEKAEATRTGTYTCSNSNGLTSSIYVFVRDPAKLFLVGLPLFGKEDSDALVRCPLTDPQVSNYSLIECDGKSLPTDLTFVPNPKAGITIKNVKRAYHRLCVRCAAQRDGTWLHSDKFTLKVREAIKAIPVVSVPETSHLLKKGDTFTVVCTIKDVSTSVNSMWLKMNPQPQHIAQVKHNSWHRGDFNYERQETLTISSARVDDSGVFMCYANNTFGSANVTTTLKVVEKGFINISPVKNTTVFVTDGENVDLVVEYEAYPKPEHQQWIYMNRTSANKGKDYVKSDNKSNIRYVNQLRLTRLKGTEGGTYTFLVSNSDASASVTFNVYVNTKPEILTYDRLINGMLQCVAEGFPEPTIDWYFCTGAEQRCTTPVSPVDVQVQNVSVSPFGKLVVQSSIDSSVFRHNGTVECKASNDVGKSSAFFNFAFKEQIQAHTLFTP
The assay is described as follows: BIAcore.

Where a chain is given by its changes, count along the chain named.

human c-kit (recombinant, on BIAcore chip or beads) (human), sequence (P10721 26-524): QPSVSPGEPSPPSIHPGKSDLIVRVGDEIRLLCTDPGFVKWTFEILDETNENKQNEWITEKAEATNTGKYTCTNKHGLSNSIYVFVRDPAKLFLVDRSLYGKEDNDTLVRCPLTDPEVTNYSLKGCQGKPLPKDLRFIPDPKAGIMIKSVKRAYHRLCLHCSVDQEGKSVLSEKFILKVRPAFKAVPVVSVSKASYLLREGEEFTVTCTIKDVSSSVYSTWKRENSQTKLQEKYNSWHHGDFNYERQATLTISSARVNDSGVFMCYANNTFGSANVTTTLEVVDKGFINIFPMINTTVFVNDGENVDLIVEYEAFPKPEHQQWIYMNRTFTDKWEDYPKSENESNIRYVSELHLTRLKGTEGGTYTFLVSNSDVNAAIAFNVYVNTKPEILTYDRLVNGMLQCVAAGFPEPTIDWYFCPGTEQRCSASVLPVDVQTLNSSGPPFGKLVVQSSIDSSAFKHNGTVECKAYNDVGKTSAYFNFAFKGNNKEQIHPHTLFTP

B1: DOM28m-73 (protein)
chain: EVQLLESGGGLVQPGGSLRLSCAASGFTFKHYSMNWVRQAPGKGLEWVSRISPSGVSTYYADSVKGRFTISRDNSKNTLYLQMNSLRAEDTAVYYCAKIMNSHKADEFDYWGQGTLVTVSS
With B1, the Kd (as a rule, the concentration at which binding is half-saturated) in assay [1] was 9 µM; in assay [2] it was 9000 nM.

B2: DOM28m-23 (protein)
VH: EVRLLESGGGLVQPGGSLRLSCAASGFTFRDYVMVWVRQAPGKGLEWVSAIAPTGGYTYYADSVKGRFTISRDNSKNTLYLQMNSLRAEDTAVYYCAKSLRTWLSEDLPFDYWGQGTLVTVSS
On to B2, for which the values for the Kd in assay [1], in assay [2] and in assay [3] were 22 µM, 22000 nM and 2800 nM, respectively.

B3: DOM28h-94 (protein)
VH: EVQLLESGGGLVQPGGSLRLSCAASGFTFFPYAMGWVRQAPGKGLEWVSFISGRGDTTYYADSVKGRFTISRDNSKNTLYLQMNSLRAEDTAVYYCAKTATSDLWNFDYWGQGTLVTVSS
As to B3, the equilibrium dissociation constant (Kd) in assay [3] and in assay [4] was 1500 nM throughout.

B4: DOM28h-94-12 (protein)
VH: B3 VH with L4P, A24V, F29V, W110R
In the case of B4, the Kd in assay [5] came out at 11 nM.

B5: DOM28h-94-10 (protein)
VH: B3 VH with F29V, W110R
As for B5, the Kd in assay [5] was 112 nM.

B6: DMS5052 (chimeric MLC mAb-cKIT dAb, DOM28m-007) (bispecific antibody, not shown: a dimerising Fc or GST)
heavy (part 1 of 2): QVQLQQSGAELASPGASVKLSCKASGYTFTTYWIHWVKQRPGQGLEWIGAIYPGDGDTRYTQNFKDKATLTADSSSSTAYMQLSSLASEDSAVFYCAREGTPPFTTATFAMAYWGQGTSVTVSS
heavy (part 2 of 2): STGEVQLLESGGGLVQPGGSLRLSCAASGFTFSNYAMGWVRQAPGKGLEWVSSISSSGFATYYADSVKGRFTISRDNSKNTLYLQMNSLRAEDTAVYYCAKSESRTFKAFDYWGQGTLVTVSS
light: DIVMSQSPSSLAVSAGDKVTMSCKSSQSLLYSRTRKNYLAWYQQKPGQSPKLLIYWASTRQSGVPDRFTGSGSGTDFTLTISSVQAEDLAVYYCKQSYNLFTFGSGTKLEIKR
Turning to B6, the Kd worked out at 80 nM in assay [2], 27 nM in assay [6] and 36 nM in assay [7].

B7: DMS5060 (chimeric MLC mAb-cKIT dAb, DOM28h-094) (bispecific antibody, not shown: a dimerising Fc or GST)
heavy (part 1 of 2): B6 heavy (part 1 of 2)
heavy (part 2 of 2): STGEVQLLESGGGLVQPGGSLRLSCAASGFTFFPYAMGWVRQAPGKGLEWVSFISGRGDTTYYADSVKGRFTISRDNSKNTLYLQMNSLRAEDTAVYYCAKTATSDLWNFDYWGQGTLVTVSS
light: B6 light
B7: the equilibrium dissociation constant (Kd) in assay [2] came to 14 nM; in assay [6] it was 36 nM; in assay [7], 13 nM.

B8: DOM28m-7 (protein)
VH: EVQLLESGGGLVQPGGSLRLSCAASGFTFSNYAMGWVRQAPGKGLEWVSSISSSGFATYYADSVKGRFTISRDNSKNTLYLQMNSLRAEDTAVYYCAKSESRTFKAFDYWGQGTLVTVSS
Consider B8, for which the figures for the Kd in assay [1] and in assay [2] were 4 µM and 3000 nM, respectively.
